From US20100190693 come the findings set out here.

Series [1] deals with GST-TORC2 (aa 161-181) Ser171Ala, Q53ET0.
The target of series [2] is T1, GST-TORC2 (aa 161-181), wild-type, Q53ET0 (not fully specified).
T1 chain: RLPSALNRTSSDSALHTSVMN

Sequence of GST-TORC2 (aa 161-181) Ser171Ala, Q53ET0 (Q53ET0 whole entry S171A, looked up, the tested form may be a part): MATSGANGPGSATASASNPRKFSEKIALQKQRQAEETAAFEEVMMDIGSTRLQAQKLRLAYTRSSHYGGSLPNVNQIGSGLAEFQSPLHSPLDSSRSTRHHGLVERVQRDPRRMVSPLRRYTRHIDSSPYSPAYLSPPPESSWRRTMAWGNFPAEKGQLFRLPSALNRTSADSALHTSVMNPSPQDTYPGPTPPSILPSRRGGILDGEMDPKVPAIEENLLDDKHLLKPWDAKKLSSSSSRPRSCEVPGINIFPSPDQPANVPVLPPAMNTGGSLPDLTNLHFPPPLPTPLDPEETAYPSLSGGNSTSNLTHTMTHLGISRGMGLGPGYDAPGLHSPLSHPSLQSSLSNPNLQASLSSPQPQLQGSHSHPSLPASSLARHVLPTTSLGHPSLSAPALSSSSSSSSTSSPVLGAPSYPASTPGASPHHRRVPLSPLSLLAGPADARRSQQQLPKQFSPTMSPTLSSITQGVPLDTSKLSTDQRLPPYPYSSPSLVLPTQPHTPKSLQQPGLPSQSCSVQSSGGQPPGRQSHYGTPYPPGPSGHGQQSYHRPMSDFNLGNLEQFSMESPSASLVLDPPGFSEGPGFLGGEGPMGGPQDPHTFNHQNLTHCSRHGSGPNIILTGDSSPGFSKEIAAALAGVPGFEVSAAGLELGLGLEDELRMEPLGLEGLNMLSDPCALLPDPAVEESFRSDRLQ

B1: Salt Inducible Kinase 2 (SIK2) (protein)
chain: MVMADGPRHLQRGPVRVGFYDIEGTLGKGNFAVVKLGRHRITKTEVAIKIIDKSQLDAVNLEKIYREVQIMKMLDHPHIIKLYQVMETKSMLYLVTEYAKNGEIFDYLANHGRLNESEARRKFWQILSAVDYCHGRKIVHRDLKAENLLLDNNMNIKIADFGFGNFFKSGELLATWCGSPPYAAPEVFEGQQYEGPQLDIWSMGVVLYVLVCGALPFDGPTLPILRQRVLEGRFRIPYFMSEDCEHLIRRMLVLDPSKRLTIAQIKEHKWMLIEVPVQRPVLYPQEQENEPSIGEFNEQVLRLMHSLGIDQQKTIESLQNKSYNHFAAIYFLLVERLKSHRSSFPVEQRLDGRQRRPSTIAEQTVAKAQTVGLPVTMHSPNMRLLRSALLPQASNVEAFSFPASGCQAEAAFMEEECVDTPKVNGCLLDPVPPVLVRKGCQSLPSNMMETSIDEGLETEGEAEEDPAHAFEAFQSTRSGQRRHTLSEVTNQLVVMPGAGKIFSMNDSPSLDSVDSEYDMGSVQRDLNFLEDNPSLKDIMLANQPSPRMTSPFISLRPTNPAMQALSSQKREVHNRSPVSFREGRRASDTSLTQGIVAFRQHLQNLARTKGILELNKVQLLYEQIGPEADPNLAPAAPQLQDLASSCPQEEVSQQQESVSTLPASVHPQLSPRQSLETQYLQHRLQKPSLLSKAQNTCQLYCKEPPRSLEQQLQEHRLQQKRLFLQKQSQLQAYFNQMQIAESSYPQPSQQLPLPRQETPPPSQQAPPFSLTQPLSPVLEPSSEQMQYSPFLSQYQEMQLQPLPSTSGPRAAPPLPTQLQQQQPPPPPPPPPPRQPGAAPAPLQFSYQTCELPSAASPAPDYPTPCQYPVDGAQQSDLTGPDCPRSPGLQEAPSSYDPLALSELPGLFDCEMLDAVDPQHNGYVLVN
Consider B1, for which the “in vitro kinase assay, 32P-labeling” value in series [1] and in series [2] was “SIK2 was found to phosphorylate wild-type but not Ser171Ala mutant TORC2 in vitro” in each case.
